Test results published in patent US20200010836A1, “Regulation of Gene Expression by Aptamer-Mediated Accessibility of Polyadenylation Signals” (MEIRAGTX, UK II Limited, priority 2017, published 2020).

B1: ATA_Gua_4: SEQ ID NO: 4; xpt-guanine aptamer linked to 14 bp stem-loop embedding AATAAA; also used in pEGFP vector (nucleic acid)
DNA: AAGGCCAAGAAGGGCGGAAAGATCGCCGTGTAAGCCATACCACATTTGTAGAGGTTTTACTTGCTTTAAAAAACCTCCCACACCTCCCCCTGAACCTGAAACATAAAATGAATGCAATTGTTGTTGTTAACTTGTTTATTGCAGCTTATAATGGTTACAAATAAAGCAATAGCATCACAAATTTTAAAGCAATAATCGCGTGGATATGGCACGCAAGTTTCTACCGGGCACCGTAAATGTCCGACTTGCTTTATTTGTGCGAAAGCACAAATAAAGCATTTTTTTCACTGCATTCTAGTTGTGGTTTGTCCAAACTCATCAATGTATCTTAACGCGT
B2: ATA_Ydhl: SEQ ID NO: 17; adenine aptamer ydhl-A linked to 9 bp TTCG stem-loop embedding AATAAA, P1 stem 10 bp (nucleic acid)
DNA: AAGGCCAAGAAGGGCGGAAAGATCGCCGTGTAAGCCATACCACATTTGTAGAGGTTTTACTTGCTTTAAAAAACCTCCCACACCTCCCCCTGAACCTGAAACATAAAATGAATGCAATTGTTGTTGTTAACTTGTTTATTGCAGCTTATAATGGTTACAAATAAAGCAATAGCATCACAAATTTCAATAAAGGTATAACCTCAATAATATGGTTTGAGGGTGTCTACCAGGAACCGTAAAATCCTGATTACCTTTATTTCTTCGGAAATAAAGCATTTTTTTCACTGCATTCTAGTTGTGGTTTGTCCAAACTCATCAATGTATCTTAACGCGT
B3: ATA_Gua_2: SEQ ID NO: 2; xpt-guanine aptamer linked to 10 bp stem-loop embedding AATAAA; also used in pEGFP vector (nucleic acid)
DNA: AAGGCCAAGAAGGGCGGAAAGATCGCCGTGTAAGCCATACCACATTTGTAGAGGTTTTACTTGCTTTAAAAAACCTCCCACACCTCCCCCTGAACCTGAAACATAAAATGAATGCAATTGTTGTTGTTAACTTGTTTATTGCAGCTTATAATGGTTACAAATAAAGCAATAGCATCACAAATTTCACATAAAGCATAATCGCGTGGATATGGCACGCAAGTTTCTACCGGGCACCGTAAATGTCCGACTGCTTTATTTCGAAAGAAATAAAGCATTTTTTTCACTGCATTCTAGTTGTGGTTTGTCCAAACTCATCAATGTATCTTAACGCGT

What was measured:
Assay type in all cases: cell-based
luciferase expression [1] = experiment: Firefly luciferase assay of HEK 293 cells transfected with riboswitch constructs, treated with guanosine or guanine; settings: absence of guanine treatment
Description: (§1) Transfection and aptamer ligand treatment: 3.5×10^4 HEK 293 cells were plated in a 96-well flat bottom plate the day before transfection. Plasmid DNA (500 ng) was added to a tube or a 96-well U-bottom plate. Separately, TransIT-293 reagent (Minis; 1.4 μl) was added to 50 μl opti-mem I media (Life Technologies), and allowed to sit for 5 minutes at room temperature (“RT”). Then, 50 μl of this diluted transfection reagent was added to the DNA, mixed, and incubated at RT for 20 min. Finally, 7 μl of this solution was added to a well of cells in a 96-well plate. Four hours after transfection, the media was aspirated, and new media was added with (i) DMSO (0.5%) or 500 μM guanosine; or (ii) NaOH (2 mM) as solvent control or 500 μM guanine. The induction fold was expressed as the quotient of luciferase activity obtained in the presence of aptamer ligand divided by the value obtained in the absence of the aptamer ligand.
(§2) Firefly luciferase assay of cultured cells: Twenty-four hours after media change, plates were removed from the incubator, and equilibrated to RT for several minutes on a lab bench, then aspirated. Glo-lysis buffer (Promega, […]) was added, and the plates allowed to remain at RT for at least 5 minutes. Then, the well contents were mixed by 50 μL trituration, and 20 μL of each sample was mixed with 20 μL of bright-glo reagent (Promega) that had been diluted to 10% in glo-lysis buffer. 96 wells were spaced on an opaque white 384-well plate. Following a 5-min incubation at RT, luminescence was measured using Tecan machine with 500 mSec read time. The luciferase activity was expressed as mean relative light unit (RLU)±S.D.

EGFP expression = experiment: GFP fluorescence of HEK 293 cells transfected with pEGFP riboswitch constructs, treated with guanine; settings: 500 μM guanine vs NaOH solvent control
Description: as §1
Transfection and measurement of GFP fluorescence: 3.5×10^4 HEK 293 cells were plated in 96-well flat bottom plate the day before transfection. […] GFP fluorescence intensity was measured by Tecan plate reader, using Excitation wavelength at 484 nm, Emission wavelength at 510 nm and Excitation bandwidth at 5 nm. The GFP fluorescence intensity was expressed as the value generated by GFP constructs subtracted by the value generated by cells without transfection.

luciferase expression [2] = experiment: Firefly luciferase assay of HEK 293 cells transfected with adenine aptamer construct, treated with adenine
Description: as §1, §2
Four hours after transfection, the media was aspirated, and new media with NaOH (1 mM) or 1 mM adenine (Calbiochem) was added. The induction fold was expressed as the quotient of luciferase activity obtained in the presence of aptamer ligand divided by the value obtained in the absence of the aptamer ligand.

Row | Molecule | basal level luciferase expression, % of the pFLuc control vector (luciferase expression [1]) [%] | fold increase in GFP expression on guanine treatment (EGFP expression) [fold] | luciferase expression in the presence of adenine, % of the control pFLuc construct in the presence of adenine (luciferase expression [2]; 1 mM adenine) | fold increase in luciferase expression on adenine treatment (luciferase expression [2]; 1 mM adenine vs NaOH solvent control) [fold] | luciferase level in the absence of adenine, % of the control pFLuc construct (luciferase expression [2]; absence of adenine treatment)
1 | B1 | 16 | 1.6 |  |  | 
2 | B2 |  |  | approximately 82% | 4.0 | approximately 52%
3 | B3 |  | 1.5 |  |  | 
